The source of these data is patent US8673579B2, “Peptide probes for diagnostics and therapeutics” (priority 2006, dated 2014).

A short description of series [1]: Circular dichroism secondary structure calculation. The format is physicochemical. As to conditions: circular dichroism in 30% TFE/Tris, CDPRO deconvolution.
For the next series, the target named is Aβ40 (Homo sapiens, UniProt P05067). As to the kind of experiment: Pyrene-labeled peptide probe fluorescence with structural forms of Aβ40. The format is binding. The text has this: (§1) A peptide probe specific for Aβ (SEQ ID NO:36) is used to detect specific structural forms of Aβ40 and Aβ42. The peptide probe is labeled at each terminus with pyrene. The peptide probe is contacted with different samples comprising Aβ42 oligomers, Aβ40 oligomers, and Aβ40 monomers.
(§2) Interaction between the peptide probe and sample is detected by excitation at 350 nm and scanning fluorescence from 360 to 600 nm. […] FIG. 11A (fibers and monomer) & 11B (oligomers).

Another series deals with Aβ42 (Homo sapiens, UniProt P05067). As to the kind of experiment: Pyrene-labeled peptide probe fluorescence with structural forms of Aβ42. It is filed as binding.
Source text: as §1, §2

Series [2] has as its system Aβ40 and Aβ42 in human cerebrospinal fluid (CSF). As to the kind of experiment: Detection of Aβ in human CSF samples (excimer/monomer fluorescence ratio). It is filed as binding. Conditions: 40 μL CSF, 2 μM dipyrene-labeled probe, 1 hour; ratio 430-530 nm over 370-385 nm. The text has this: A peptide probe specific for Aβ (SEQ ID NO:36) is used to detect Aβ40 and Aβ42 in samples of human cerebrospinal fluid (CSF) obtained from Alzheimer's patients and from age-matched healthy patients. […] The data is presented in FIG. 12 as the ratio of the […] region (430-530 nm) over the monomeric region (370-385 nm). […] FIG. 12A presents the data for each patient, while FIG. 12B presents the average data for each patient group.

Series [3] relates to Aβ40 and Aβ42 in human serum. As to the kind of experiment: Detection of Aβ in human serum with immobilized biotinylated peptide probe. It is filed as binding. As to conditions: 200 μL serum; biotinylated probe on streptavidin magnetic beads, then 2 μM dipyrene-labeled probe 3-5 hours. Here is the method:
Biotinylated peptide probe is immobilized to Dynal magnetic beads coated with streptavidin. These beads are incubated directly with the serum samples for 1 hour, then the magnetic beads and the captured material are pulled down to remove the serum samples.

Series [4] concerns the target T1, Aβ plaques (Homo sapiens, UniProt P05067). As to the kind of experiment: In vitro staining of brain sections from hAPP751SL transgenic mice. It is filed as binding. Here is the method:
The following illustrates the ability of peptide probes to target Aβ plaques (e.g., insoluble self-aggregates of Aβ protein associated with Alzheimer's disease) both in vitro and in vivo. A peptide probe specific for Aβ (SEQ ID NO:36) and labeled at each terminus with pyrene is used.
In vitro studies are carried out on brain sections from transgenic mice over-expressing human APP751 with London and Swedish mutations (hAPP751SL). This protein is an Aβ mutant that forms neuritic plaques in the transgenic mice. Tissue from non-transgenic littermate mice served as control tissue.
Two different types of tissue slices are evaluated: cyro-cut (frozen and sliced) and paraffin embedded and sliced. The peptide probe is incubated on the brain slices and binding of the peptide probe to the brain, and to the amyloid deposits/plaques in particular, are qualitatively evaluated. For reference purposes, consecutive slices are immunohistochemically stained with an anti-Aβ antibody, the 6E10 antibody or Thioflavin S. The use of anti-Aβ controls confirms the specificity of the staining on neuritic plaques.
Images are recorded on a Nikon E800 microscope with a mounted PixelFly camera. For tiled image recordings, the microscope is equipped with a StagePro software controlled automatic table. Images of peptide probe staining and antibody and ThioflavinS staining, respectively, are overlaid in Adobe Photo Shop software
In the latter samples, cells from the neuronal layer of the hippocampus are marked, as are brain tissue around plaques in the cortex. Thus, the quality of the stain may be better on paraffin sections.

Series [5] has as its target T1, Aβ plaques.
Series [6] deals with T2, PrP^Sc (Mesocricetus auratus, UniProt P04273).
Series [7] has as its target T2, PrP^Sc. This is another data set of the same source.
Series [8] deals with T3, PrP^Sc (Ovis aries, UniProt P23907).
Series [9] deals with T3, PrP^Sc. This is another data set of the same source.
Setting [10] is: general statement in description.
Setting [11] is: probe labeled at each terminus with pyrene, excitation 350 nm, scan 360 to 600 nm.
[12] abbreviates: intranasal labeled peptide probe.

pyrene = pyrene fluorescent label

Sequence of Aβ42 (P05067 672-713): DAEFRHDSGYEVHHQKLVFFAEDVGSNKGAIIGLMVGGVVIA
T1 sequence (P05067 672-713 limits assumed): as the sequence (P05067 672-713) above
Sequence of Aβ40 (P05067 672-711): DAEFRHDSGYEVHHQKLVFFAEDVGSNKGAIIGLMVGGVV
T3 sequence (P23907 25-233 limits assumed): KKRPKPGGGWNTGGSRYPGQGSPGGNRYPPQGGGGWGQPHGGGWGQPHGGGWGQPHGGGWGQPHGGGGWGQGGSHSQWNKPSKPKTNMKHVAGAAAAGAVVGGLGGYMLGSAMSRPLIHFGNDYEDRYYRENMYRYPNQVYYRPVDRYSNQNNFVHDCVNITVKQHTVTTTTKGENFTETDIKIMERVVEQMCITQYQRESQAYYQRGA
T2 sequence (P04273 23-231 limits assumed): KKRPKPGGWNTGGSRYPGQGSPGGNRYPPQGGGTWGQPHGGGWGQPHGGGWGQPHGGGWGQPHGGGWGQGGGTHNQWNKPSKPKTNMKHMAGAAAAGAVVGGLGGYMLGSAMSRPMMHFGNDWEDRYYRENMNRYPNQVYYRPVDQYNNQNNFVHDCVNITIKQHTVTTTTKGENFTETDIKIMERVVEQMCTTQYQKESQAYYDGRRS

On to “Aβ40 fibers: fibers of Aβ40 amyloid beta protein used as sample”, for which, in series [1], the turn/unordered structure is 35.9%, the α helix structure is listed as 5.6% and the “β strand (sheet) structure” value is 58.4%.
The matching figures for “Aβ42 fibers: fibers of Aβ42 amyloid beta protein used as sample”: 27.2%, 12.6% and 60.2%.
KLVFFAEDVGSNKGAIIGLM [SEQ ID NO:36]: in series [1], the turn/unordered structure was 55.5%, the α helix structure is recorded as 19.4% and the “β strand (sheet) structure” value was 25.1%. Besides, in the series with Aβ40 (setting [10]), the “specific reaction with Aβ40 monomers” value is “do not specifically react” and the “specific reaction with Aβ40 oligomers” value is on record as “specifically react”. In the series with Aβ40 (setting [11]), the “dose-dependent reaction with Aβ40 fibers” value is listed as “reacts”, the “dose-dependent reaction with Aβ40 monomer” value is on record as “dose not react” and the “dose-dependent reaction with Aβ40 oligomers” value is listed as “reacts”. Besides, in the series with Aβ42 (setting [10]), the “specific reaction with Aβ42 monomers” value is “do not specifically react” and the “specific reaction with Aβ42 oligomers” value is reported as “specifically react”. In addition, in the series with Aβ42 (setting [11]), the “dose-dependent reaction with Aβ42 fibers” value is reported as “reacts” and the “dose-dependent reaction with Aβ42 oligomers” value is listed as “reacts”. Further, the “stratification of Alzheimer's patients from age-matched healthy patients” value in [2] is listed as “able to stratify”. The “stratification of Alzheimer's patients from age-matched healthy patients” value in [3] is “able to stratify”. Further, the “staining of human amyloid peptide bearing blood vessels” value with Aβ plaques [4] (hAPP751SL transgenic brain slices) is “specifically stained”. Further, the “plaque specificity of staining, paraffin versus cryo-cut slices” value with Aβ plaques [4] (overlay with antibody staining of consecutive slices) was “staining on paraffin slices is more specific to plaques than staining on cryo-cut slices”. The “staining of plaques on brain slices” value with Aβ plaques [4] (paraffin or cryo-cut slices, dipyrene-labeled probe) is “plaque-specific staining is apparent”. In addition, in the series with Aβ plaques [5] (setting [12]), the “binding in brain of hAPP751SL transgenic mice” value is “binds to the amyloid and agglomerates outside the blood vessel in the brain”; the “distribution and binding in brain of nontransgenic mice” value is “reaches the olfactory bulb, but does not bind to a specifiable morphological structure”. In the series with Aβ plaques [5] (mouse, in vivo), the “crossing of the blood-brain barrier (BBB)” value is reported as “crosses the blood-brain barrier”.
Turning to “VVAGAAAAGAVHKMNTKPKMKHVAGAAAAGAVV [SEQ ID NO:43]”, at PrP^Sc [6], the “reactivity with smaller versus larger PrP^Sc aggregates” value is recorded as “reacts with smaller PrP^Sc aggregates over larger PrP^Sc aggregates”. For the same substance, the “reactivity after sonication of samples” value at PrP^Sc [7] is “increased reactivity”. In addition, at PrP^Sc [8], the “effect of sample sonication on signal-to-noise” value is reported as “improved the signal-to-noise ration”, the “reactivity with PrP^Sc in sera from infected sheep” value is “reacted”, the “reactivity with sera from normal sheep” value is listed as “did not react” and the sensitivity is reported as 100%. Also, the specificity on PrP^Sc [8] is reported as 100%. Besides, the “relative reactivity with sheep blood components” value on PrP^Sc [9] is “buffy coat>serum>plasma”.
Regarding “labeled peptide probe: peptide probe specific for Aβ (SEQ ID NO:36) labeled at each terminus with pyrene (pyrene-KLVFFAEDVGSNKGAIIGLM-pyrene)”, in series [1], the turn/unordered structure is given as 54.1%, the α helix structure was 18.3% and the “β strand (sheet) structure” value is reported as 27.6%.
Turning to “oligomers of Aβ42: sample of oligomers of Aβ42 including dimers, trimers, tetramers, hexamers and 12-mers”, in [1], the turn/unordered structure is given as 45.4% and the “β strand (sheet) structure” value is given as 52.7%.
